Measurements reported in patent US20200392227A1 (LYVGEN BIOPHARMA, published 2020).
Where two headings read alike, the source gives them in different places.

T1: human FcγRIIC expressed on CHO cells (human, UniProt P31995 43-323)
T1 construct: whole, on cells
T1 sequence (looked up): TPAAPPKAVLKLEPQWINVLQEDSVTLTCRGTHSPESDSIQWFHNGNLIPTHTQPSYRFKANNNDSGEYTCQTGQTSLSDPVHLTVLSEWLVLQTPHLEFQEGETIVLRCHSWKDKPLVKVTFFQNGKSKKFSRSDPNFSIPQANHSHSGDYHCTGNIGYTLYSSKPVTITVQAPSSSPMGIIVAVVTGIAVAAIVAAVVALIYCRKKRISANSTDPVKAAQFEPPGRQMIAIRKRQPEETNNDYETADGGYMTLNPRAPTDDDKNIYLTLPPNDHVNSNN

T2: human FcRIIA protein (MednaBio, E1033) (human, UniProt P12318 34-218, limits assumed)
T2 construct: Bought; also called FcγRIIA
T2 sequence (looked up): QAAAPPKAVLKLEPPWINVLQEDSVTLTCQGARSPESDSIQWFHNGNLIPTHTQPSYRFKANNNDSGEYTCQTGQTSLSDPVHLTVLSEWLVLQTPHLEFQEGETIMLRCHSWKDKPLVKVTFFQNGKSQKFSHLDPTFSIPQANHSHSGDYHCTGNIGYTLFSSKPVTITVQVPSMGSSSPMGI

T3: human FcRIIB/C protein (MednaBio, E1034) (human, UniProt P31994 43-217, limits assumed)
T3 construct: Bought as FcRIIB/C; also called FcγRIIB; CD32B
T3 sequence (looked up): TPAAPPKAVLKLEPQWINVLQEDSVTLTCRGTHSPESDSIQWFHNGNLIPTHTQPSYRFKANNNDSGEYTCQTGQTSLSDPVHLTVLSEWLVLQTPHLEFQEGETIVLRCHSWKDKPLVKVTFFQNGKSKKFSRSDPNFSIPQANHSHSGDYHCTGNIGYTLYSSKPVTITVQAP


What was measured:
[1] = biological target: T1, human FcγRIIC expressed on CHO cells; experiment: FACS, CHO cells expressing FcγRIIC
Procedure: FIGS. 1A-1W are charts showing binding activity of various IgG variants as indicated to different types of Fcγ receptors expressed on CHO-K1 cells at the various concentrations as indicated. The concentrations of each IgG variant, from left to right, are 0 μg/ml, 0.3 μg/ml, 1 μg/ml, 3 μg/ml, and 10 μg/ml in FIGS. 1A-1C, 1E-J, 1L-1M, 1P-1R, and 1T-1V. For FIGS. 1D, 1K, 10, 1S, and 1w the bars, from left to right, correspond to the following concentrations of IgG variant: 0.3 μg/ml, 1 μg/ml, 3 μg/ml, and 10 μg/ml.
(§1) For FACS analysis of the IgG mutants' binding to different FcγRs, FcγR overexpressing CHO cells were harvested using trypsin-EDTA and were suspended in cold staining buffer (3% BSA in PBS). Test IgG mutants, which were diluted in staining buffer, were added into the cells. The mixture was incubated 4° C. for 2 hours, and then washed twice with cold staining buffer and re-suspended in PE-labeled anti-human IgG followed by incubation at 4° C. for 2 hours. The mixture was washed twice with staining buffer and re-suspended in 2% PFA in PBS for FACS.

[2] = biological target: T4, human FcRIIIB protein (MednaBio, E1037) (human, UniProt O75015 17-200); experiment: BLI
T4 construct: Bought; also called FcγRIIIB; FcgRIIIB
Summary of the method: (§2)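 On an Octet Red96 System, anti-penta-HIS biosensors loaded with commercial human Fc receptor proteins were dipped into test IgG diluted 1:3 over 8 points from 300 nM. Fcγ receptor runs used pH 7.2 and FcRn runs used pH 6. Global fitting of these biolayer interferometry data gave the values for Kd, kon and koff, using a 1:1 binding model.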

[3] = biological target: T2, human FcRIIA protein (MednaBio, E1033); experiment: BLI
Summary of the method: as §2

[4] = biological target: T5, human FcRn protein (MednaBio, E1032) (human, UniProt P55899 24-297; P61769 21-119); experiment: BLI
T5 construct: Bought; assays at pH 6
Summary of the method: as §2

[5] = biological target: T6, human FcRIIIA-F158 protein (MednaBio, E1036) (human, UniProt P08637 17-208); experiment: BLI
T6 construct: Bought; also called FcγRIIIA(F)
Summary of the method: as §2

[6] = biological target: T7, human FcRI protein (MednaBio, E1031) (human, UniProt P12314 16-288, limits assumed); experiment: BLI
T7 construct: Bought; loaded on anti-penta-HIS biosensors; also called FcγRI
Summary of the method: as §2

[7] = biological target: T8, human FcRIIIA-V158 protein (MednaBio, E1035) (human, UniProt P08637 17-208); experiment: BLI
T8 construct: Bought; also called FcγRIIIA(V); FcgRIIIA(V)
Summary of the method: as §2

[8] = biological target: T3, human FcRIIB/C protein (MednaBio, E1034); experiment: BLI
Summary of the method: as §2

[9] = biological target: T9, human FcγRI expressed on CHO cells (human, UniProt P12314 16-374); experiment: FACS, CHO cells expressing FcγRI
T9 construct: whole, on cells
Procedure: as §1

[10] = biological target: T5, human FcRn protein (MednaBio, E1032); experiment: BLI; remark: listed apart in the source
Summary of the method: as §2

T8 sequence (P08637 17-208 F176V): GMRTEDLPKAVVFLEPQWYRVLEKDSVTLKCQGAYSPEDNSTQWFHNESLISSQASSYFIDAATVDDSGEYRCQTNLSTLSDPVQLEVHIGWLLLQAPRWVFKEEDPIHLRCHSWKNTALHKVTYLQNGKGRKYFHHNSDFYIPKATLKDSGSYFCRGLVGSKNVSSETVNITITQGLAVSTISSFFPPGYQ
T4 sequence (O75015 17-200 limits assumed): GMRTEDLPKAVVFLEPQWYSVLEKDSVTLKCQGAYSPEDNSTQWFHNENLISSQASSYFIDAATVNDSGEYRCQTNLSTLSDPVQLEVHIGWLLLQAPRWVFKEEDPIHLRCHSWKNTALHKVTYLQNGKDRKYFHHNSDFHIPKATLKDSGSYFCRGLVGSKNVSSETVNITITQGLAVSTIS
T7 sequence (P12314 16-288 limits assumed): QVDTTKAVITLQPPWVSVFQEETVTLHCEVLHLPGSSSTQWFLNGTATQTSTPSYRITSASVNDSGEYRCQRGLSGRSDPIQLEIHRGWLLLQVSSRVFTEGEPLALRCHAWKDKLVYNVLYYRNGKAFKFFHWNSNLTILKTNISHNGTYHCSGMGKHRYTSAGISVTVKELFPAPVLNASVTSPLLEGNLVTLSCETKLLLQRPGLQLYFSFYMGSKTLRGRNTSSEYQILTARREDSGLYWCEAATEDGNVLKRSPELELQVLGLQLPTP
T5 sequence (P55899 24-297 limits assumed, form in doubt, chain 1 of 2): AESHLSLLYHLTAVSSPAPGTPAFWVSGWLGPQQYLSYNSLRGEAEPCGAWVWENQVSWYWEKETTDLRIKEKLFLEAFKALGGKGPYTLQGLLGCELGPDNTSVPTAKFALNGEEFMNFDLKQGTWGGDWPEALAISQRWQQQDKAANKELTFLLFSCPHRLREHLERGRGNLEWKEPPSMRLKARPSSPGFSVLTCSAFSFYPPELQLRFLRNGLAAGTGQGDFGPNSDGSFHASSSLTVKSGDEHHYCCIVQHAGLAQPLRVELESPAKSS
T5 sequence (P61769 21-119 limits assumed, form in doubt, chain 2 of 2): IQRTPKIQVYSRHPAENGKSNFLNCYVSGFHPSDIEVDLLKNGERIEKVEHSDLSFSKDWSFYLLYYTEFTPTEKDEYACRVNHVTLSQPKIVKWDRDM
T6 sequence (P08637 17-208 limits assumed): as the sequence (P08637 17-208 F176V) above, with V160F counted along it
T9 sequence (P12314 16-374): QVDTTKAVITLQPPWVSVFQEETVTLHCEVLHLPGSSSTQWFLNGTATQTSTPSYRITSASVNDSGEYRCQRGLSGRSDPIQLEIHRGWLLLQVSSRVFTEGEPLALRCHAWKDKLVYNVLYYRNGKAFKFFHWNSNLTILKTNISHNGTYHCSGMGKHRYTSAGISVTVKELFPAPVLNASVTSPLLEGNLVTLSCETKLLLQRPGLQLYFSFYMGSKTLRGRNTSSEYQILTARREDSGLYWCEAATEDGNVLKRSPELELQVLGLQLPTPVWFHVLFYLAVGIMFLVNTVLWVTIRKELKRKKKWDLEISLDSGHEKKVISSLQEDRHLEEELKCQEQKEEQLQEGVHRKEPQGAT

Binder	binding result [1]	binding result [2]	Kd [3] [nM]	koff [3] [s⁻¹]	kon [3] [M⁻¹ s⁻¹]	Kd [4] [nM]	koff [4] [s⁻¹]	kon [4] [M⁻¹ s⁻¹]	Kd [6] [nM]	koff [6] [s⁻¹]	kon [6] [M⁻¹ s⁻¹]	Kd [7] [nM]	koff [7] [s⁻¹]	kon [7] [M⁻¹ s⁻¹]	Kd [8] [nM]	koff [8] [s⁻¹]	kon [8] [M⁻¹ s⁻¹]	Kd [5] [nM]	koff [5] [s⁻¹]	kon [5] [M⁻¹ s⁻¹]	further results
anti-CD137 IgG1 with Fc variant G1m5 (antibody, copies: 2 + 2) heavy: not shown light: SYELTQPPSVSVSPGQTASITCSGDNIGDQYAHWYQQKPGQSPVLVIYQDKNRPSGIPERFSGSNSGNTATLTISGTQAMDEADYYCATYTGFGSLAVFGGGTKLTVLGQPKAAPSVTLFPPSSEELQANKATLVCLISDFYPGAVTVAWKADSSPVKAGVETTTPSKQSNNKYAASSYLSLTPEQWKSHRSYSCQVTHEGSTVEKTVAPTECS	binds	no binding (tested: 300 nM)	670	0.23	340000	22	0.0077	350000	1.6	0.00047	300000	290	0.073	250000	640	0.18	280000	–	–	–	binding result [5]: no binding (tested: 300 nM)
anti-CD137 IgG1 with Fc variant G1m7 (antibody, copies: 2 + 2) heavy: not shown light: SYELTQPPSVSVSPGQTASITCSGDNIGDQYAHWYQQKPGQSPVLVIYQDKNRPSGIPERFSGSNSGNTATLTISGTQAMDEADYYCATYTGFGSLAVFGGGTKLTVLGQPKAAPSVTLFPPSSEELQANKATLVCLISDFYPGAVTVAWKADSSPVKAGVETTTPSKQSNNKYAASSYLSLTPEQWKSHRSYSCQVTHEGSTVEKTVAPTECS	binds	no binding (tested: 300 nM)	290	0.11	380000	15	0.01	670000	2.5	0.0016	630000	87	0.039	440000	110	0.032	280000	140	0.05	350000	–
anti-CD137 IgG1 with Fc variant G1m8 (antibody, copies: 2 + 2) heavy: not shown light: SYELTQPPSVSVSPGQTASITCSGDNIGDQYAHWYQQKPGQSPVLVIYQDKNRPSGIPERFSGSNSGNTATLTISGTQAMDEADYYCATYTGFGSLAVFGGGTKLTVLGQPKAAPSVTLFPPSSEELQANKATLVCLISDFYPGAVTVAWKADSSPVKAGVETTTPSKQSNNKYAASSYLSLTPEQWKSHRSYSCQVTHEGSTVEKTVAPTECS	binds	no binding (tested: 300 nM)	270	0.17	610000	16.5	0.0111	673000	2.5	0.0016	630000	230	0.074	320000	420	0.11	270000	260	0.057	220000	–
anti-CD137 IgG1 with Fc variant G1m9 (antibody, copies: 2 + 2) heavy: not shown light: SYELTQPPSVSVSPGQTASITCSGDNIGDQYAHWYQQKPGQSPVLVIYQDKNRPSGIPERFSGSNSGNTATLTISGTQAMDEADYYCATYTGFGSLAVFGGGTKLTVLGQPKAAPSVTLFPPSSEELQANKATLVCLISDFYPGAVTVAWKADSSPVKAGVETTTPSKQSNNKYAASSYLSLTPEQWKSHRSYSCQVTHEGSTVEKTVAPTECS	binds	no binding (tested: 300 nM)	680	0.13	180000	19.1	0.0116	607000	3.1	0.0016	510000	86	0.1	1.2e+06	25	0.0051	200000	180	0.091	520000	–
anti-CD137 IgG4 with Fc variant G4m18 (antibody, copies: 2 + 2) heavy: EVQLVQSGAEVKKPGESLRISCKGSGYSFSTYWISWVRQMPGKGLEWMGKIYPGDSYTNYSPSFQGQVTISADKSISTAYLQWSSLKASDTAMYYCARGYGIFDYWGQGTLVTVSSASTKGPSVFPLAPCSRSTSESTAALGCLVKDYFPEPVTVSWNSGALTSGVHTFPAVLQSSGLYSLSSVVTVPSSSLGTKTYTCNVDHKPSNTKVDKRVESKYGPPCPPCPAPEFLSVFLFPPKPKDTLMISRTPEVTCVVVDVSQEDPEVQFNWYVDGVEVHNAKTKPREEQFNSTYRVVSVLTVLHQDWLNGKEYKCKVSNKGFPSSIEKTISKAKGQPREPQVYTLPPSQEEMTKNQVSLTCLVKGFYPSDIAVEWESNGQPENNYKTTPPVLDSDGSFFLYSRLTVDKSRWQEGNVFSCSVMHEALHNHYTQKSLSLSLGK light: SYELTQPPSVSVSPGQTASITCSGDNIGDQYAHWYQQKPGQSPVLVIYQDKNRPSGIPERFSGSNSGNTATLTISGTQAMDEADYYCATYTGFGSLAVFGGGTKLTVLGQPKAAPSVTLFPPSSEELQANKATLVCLISDFYPGAVTVAWKADSSPVKAGVETTTPSKQSNNKYAASSYLSLTPEQWKSHRSYSCQVTHEGSTVEKTVAPTECS	–	–	–	–	–	–	–	–	–	–	–	–	–	–	–	–	–	–	–	–	binding result [9]: binds; Kd [10]: 11 nM; koff [10]: 0.0068 s⁻¹; kon [10]: 610000 M⁻¹ s⁻¹
